The results in this text go back to patent US20240092930A1 (MABWELL SHANGHAI BIOSCIENCE, published 2024).

Sequences and labels used below:
B1: h23-12-1 (antibody, human IgG1, kappa, V domains shown)
VH: QVQLVQSGAEVKKPGASVKVSCKASGYTFTSYWMHWVRQAPGQGLEWMGEITPSDNYTSYNQKFKGRVTITRDTSTSTAYMELSSLRSEDTAVYYCARGHGNYVSFDYWGQGTLVTVSS
VL: DIQMTQSPSSLSASVGDRVTITCRASQDISNYLNWYQQKPGKAPKLLIYYTSRLHSGVPSRFSGSGSGTDFTLTISSLQPEDFATYFCQQGYTLPPYTFGQGTKLEIKR
notes: also called CDR grafted antibody 23-12
B2: h23-12-13 (antibody, human IgG1, kappa, V domains shown)
VH: QVQLVQSGAEVKKPGASVKVSCKASGYTFTSYWMHWVRQAPGQGLEWMGEITPSDNYTSYNQKFKGRVTITRDTSTSTAYMELSSLRSEDTAVYYCARGEGNYVSFDYWGQGTLVTVSS
VL: DIQMTQSPSSLSASVGDRVTITCRASQDISNYLNWYQQKPGKAPKLLIYYASRLHSGVPSRFSGSGSGTDFTLTISSLQPEDFATYFCQQGYTLPPYTFGQGTKLEIKR
B3: h23-12-4 (antibody, human IgG1, kappa, V domains shown)
VH: QVQLVQSGAEVKKPGASVKVSCKASGYTFTSYWMHWVRQAPGQGLEWMGEITPSDNYGSYNQKFKGRVTITRDTSTSTAYMELSSLRSEDTAVYYCARGHGNYVSFDYWGQGTLVTVSS
VL: DIQMTQSPSSLSASVGDRVTITCRASQDISNYLNWYQQKPGKAPKLLIYYTSRLHSGVPSRFSGSGSGTDFTLTISSLQPEDFATYFCQQGYTLPPYTFGQGTKLEIKR
B4: h23-12-11 (antibody, human IgG1, kappa, V domains shown)
VH: QVQLVQSGAEVKKPGASVKVSCKASGYTFTSYWMHWVRQAPGQGLEWMGEITPSDNYGSYNQKFKGRVTITRDTSTSTAYMELSSLRSEDTAVYYCARGHGNYVSFDYWGQGTLVTVSS
VL: DIQMTQSPSSLSASVGDRVTITCRASQDISNYLNWYQQKPGKAPKLLIYYASRLHSGVPSRFSGSGSGTDFTLTISSLQPEDFATYFCQQGYTLPPYTFGQGTKLEIKR
B5: h23-12-8 (antibody, human IgG1, kappa, V domains shown)
VH: QVQLVQSGAEVKKPGASVKVSCKASGYTFTSYWMHWVRQAPGQGLEWMGEITPSDNYTSYNQKFKGRVTITRDTSTSTAYMELSSLRSEDTAVYYCARGHGNYVSFDYWGQGTLVTVSS
VL: DIQMTQSPSSLSASVGDRVTITCRASQDISNYLNWYQQKPGKAPKLLIYYASRLHSGVPSRFSGSGSGTDFTLTISSLQPEDFATYFCQQGYTLPPYTFGQGTKLEIKR
B6: h23-12-15 (antibody, human IgG1, kappa, V domains shown)
VH: QVQLVQSGAEVKKPGASVKVSCKASGYTFTSYWMHWVRQAPGQGLEWMGEITPSDNYTSYNQKFKGRVTITRDTSTSTAYMELSSLRSEDTAVYYCARGHGNYVSFDYWGQGTLVTVSS
VL: DIQMTQSPSSLSASVGDRVTITCRASQDISNYLNWYQQKPGKAPKLLIYYTSSLHSGVPSRFSGSGSGTDFTLTISSLQPEDFATYFCQQGYTLPPYTFGQGTKLEIKR
B7: h23-12-3 (antibody, human IgG1, kappa, V domains shown)
VH: QVQLVQSGAEVKKPGASVKVSCKASGYTFTSYWMHWVRQAPGQGLEWMGEITPSDGYTSYNQKFKGRVTITRDTSTSTAYMELSSLRSEDTAVYYCARGHGNYVSFDYWGQGTLVTVSS
VL: DIQMTQSPSSLSASVGDRVTITCRASQDISNYLNWYQQKPGKAPKLLIYYTSRLHSGVPSRFSGSGSGTDFTLTISSLQPEDFATYFCQQGYTLPPYTFGQGTKLEIKR
B8: h23-12-9 (antibody, human IgG1, kappa, V domains shown)
VH: QVQLVQSGAEVKKPGASVKVSCKASGYTFTSYWMHWVRQAPGQGLEWMGEITPGDNYTSYNQKFKGRVTITRDTSTSTAYMELSSLRSEDTAVYYCARGHGNYVSFDYWGQGTLVTVSS
VL: DIQMTQSPSSLSASVGDRVTITCRASQDISNYLNWYQQKPGKAPKLLIYYASRLHSGVPSRFSGSGSGTDFTLTISSLQPEDFATYFCQQGYTLPPYTFGQGTKLEIKR
B9: h23-12-16 (antibody, human IgG1, kappa, V domains shown)
VH: QVQLVQSGAEVKKPGASVKVSCKASGYTFTSYWMHWVRQAPGQGLEWMGEITPGDNYTSYNQKFKGRVTITRDTSTSTAYMELSSLRSEDTAVYYCARGHGNYVSFDYWGQGTLVTVSS
VL: DIQMTQSPSSLSASVGDRVTITCRASQDISNYLNWYQQKPGKAPKLLIYYTSSLHSGVPSRFSGSGSGTDFTLTISSLQPEDFATYFCQQGYTLPPYTFGQGTKLEIKR
B10: h23-12-14 (antibody, human IgG1, kappa, V domains shown)
VH: QVQLVQSGAEVKKPGASVKVSCKASGYTFTSYWMHWVRQAPGQGLEWMGEITPSDNYTSYNQKFKGRVTITRDTSTSTAYMELSSLRSEDTAVYYCARGQGNYVSFDYWGQGTLVTVSS
VL: DIQMTQSPSSLSASVGDRVTITCRASQDISNYLNWYQQKPGKAPKLLIYYASRLHSGVPSRFSGSGSGTDFTLTISSLQPEDFATYFCQQGYTLPPYTFGQGTKLEIKR
B11: h23-12-10 (antibody, human IgG1, kappa, V domains shown)
VH: QVQLVQSGAEVKKPGASVKVSCKASGYTFTSYWMHWVRQAPGQGLEWMGEITPSDGYTSYNQKFKGRVTITRDTSTSTAYMELSSLRSEDTAVYYCARGHGNYVSFDYWGQGTLVTVSS
VL: DIQMTQSPSSLSASVGDRVTITCRASQDISNYLNWYQQKPGKAPKLLIYYASRLHSGVPSRFSGSGSGTDFTLTISSLQPEDFATYFCQQGYTLPPYTFGQGTKLEIKR
B12: h23-12-17 (antibody, human IgG1, kappa, V domains shown)
VH: QVQLVQSGAEVKKPGASVKVSCKASGYTFTSYWMHWVRQAPGQGLEWMGEITPSDGYTSYNQKFKGRVTITRDTSTSTAYMELSSLRSEDTAVYYCARGHGNYVSFDYWGQGTLVTVSS
VL: DIQMTQSPSSLSASVGDRVTITCRASQDISNYLNWYQQKPGKAPKLLIYYTSSLHSGVPSRFSGSGSGTDFTLTISSLQPEDFATYFCQQGYTLPPYTFGQGTKLEIKR
B13: h23-12-6 (antibody, human IgG1, kappa, V domains shown)
VH: QVQLVQSGAEVKKPGASVKVSCKASGYTFTSYWMHWVRQAPGQGLEWMGEITPSDNYTSYNQKFKGRVTITRDTSTSTAYMELSSLRSEDTAVYYCARGEGNYVSFDYWGQGTLVTVSS
VL: DIQMTQSPSSLSASVGDRVTITCRASQDISNYLNWYQQKPGKAPKLLIYYTSRLHSGVPSRFSGSGSGTDFTLTISSLQPEDFATYFCQQGYTLPPYTFGQGTKLEIKR
B14: h23-12-5 (antibody, human IgG1, kappa, V domains shown)
VH: QVQLVQSGAEVKKPGASVKVSCKASGYTFTSYWMHWVRQAPGQGLEWMGEITPSDNYTSYAQKFKGRVTITRDTSTSTAYMELSSLRSEDTAVYYCARGHGNYVSFDYWGQGTLVTVSS
VL: DIQMTQSPSSLSASVGDRVTITCRASQDISNYLNWYQQKPGKAPKLLIYYTSRLHSGVPSRFSGSGSGTDFTLTISSLQPEDFATYFCQQGYTLPPYTFGQGTKLEIKR
B15: h23-12-12 (antibody, human IgG1, kappa, V domains shown)
VH: QVQLVQSGAEVKKPGASVKVSCKASGYTFTSYWMHWVRQAPGQGLEWMGEITPSDNYTSYAQKFKGRVTITRDTSTSTAYMELSSLRSEDTAVYYCARGHGNYVSFDYWGQGTLVTVSS
VL: DIQMTQSPSSLSASVGDRVTITCRASQDISNYLNWYQQKPGKAPKLLIYYASRLHSGVPSRFSGSGSGTDFTLTISSLQPEDFATYFCQQGYTLPPYTFGQGTKLEIKR
B16: h23-12-18 (antibody, human IgG1, kappa, V domains shown)
VH: QVQLVQSGAEVKKPGASVKVSCKASGYTFTSYWMHWVRQAPGQGLEWMGEITPSDNYGSYNQKFKGRVTITRDTSTSTAYMELSSLRSEDTAVYYCARGHGNYVSFDYWGQGTLVTVSS
VL: DIQMTQSPSSLSASVGDRVTITCRASQDISNYLNWYQQKPGKAPKLLIYYTSSLHSGVPSRFSGSGSGTDFTLTISSLQPEDFATYFCQQGYTLPPYTFGQGTKLEIKR
B17: h23-12-7 (antibody, human IgG1, kappa, V domains shown)
VH: QVQLVQSGAEVKKPGASVKVSCKASGYTFTSYWMHWVRQAPGQGLEWMGEITPSDNYTSYNQKFKGRVTITRDTSTSTAYMELSSLRSEDTAVYYCARGQGNYVSFDYWGQGTLVTVSS
VL: DIQMTQSPSSLSASVGDRVTITCRASQDISNYLNWYQQKPGKAPKLLIYYTSRLHSGVPSRFSGSGSGTDFTLTISSLQPEDFATYFCQQGYTLPPYTFGQGTKLEIKR
B18: h23-12-19 (antibody, human IgG1, kappa, V domains shown)
VH: QVQLVQSGAEVKKPGASVKVSCKASGYTFTSYWMHWVRQAPGQGLEWMGEITPSDNYTSYAQKFKGRVTITRDTSTSTAYMELSSLRSEDTAVYYCARGHGNYVSFDYWGQGTLVTVSS
VL: DIQMTQSPSSLSASVGDRVTITCRASQDISNYLNWYQQKPGKAPKLLIYYTSSLHSGVPSRFSGSGSGTDFTLTISSLQPEDFATYFCQQGYTLPPYTFGQGTKLEIKR
B19: h23-12-2 (antibody, human IgG1, kappa, V domains shown)
VH: QVQLVQSGAEVKKPGASVKVSCKASGYTFTSYWMHWVRQAPGQGLEWMGEITPGDNYTSYNQKFKGRVTITRDTSTSTAYMELSSLRSEDTAVYYCARGHGNYVSFDYWGQGTLVTVSS
VL: DIQMTQSPSSLSASVGDRVTITCRASQDISNYLNWYQQKPGKAPKLLIYYTSRLHSGVPSRFSGSGSGTDFTLTISSLQPEDFATYFCQQGYTLPPYTFGQGTKLEIKR

This test addresses T1, recombinant human Trop-2-his protein (ACCESSION NO.: NP_002344.2, AA 1-274) (human, UniProt P09758 27-274).
T1 construct: range 27-274; also called recombinant human Trop-2 protein; recombinant human Trop-2 extracellular domain; not shown: his tag
T1 sequence (looked up): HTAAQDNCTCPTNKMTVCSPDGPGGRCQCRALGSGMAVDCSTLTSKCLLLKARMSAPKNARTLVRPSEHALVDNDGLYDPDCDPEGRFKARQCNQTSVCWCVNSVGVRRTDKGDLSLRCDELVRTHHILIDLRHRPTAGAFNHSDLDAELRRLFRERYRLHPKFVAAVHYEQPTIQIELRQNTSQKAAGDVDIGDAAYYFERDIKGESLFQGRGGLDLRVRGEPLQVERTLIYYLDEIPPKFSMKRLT
Briefly: BLI, antibody on AHC sensor, Trop-2-his 60 nM. Here is the method:
5-6 days after cell transfection, culture supernatants were purified through ProA affinity chromatography column to obtain different humanized antibodies. Affinities of the obtained antibodies were determined by an assay including capturing Fc fragments of the antibodies with anti-human IgG Fc capture (AHC) biosensors using Octet QKe system instrument from Fortebio. For the assay, each of the humanized antibodies and control antibody Sacituzumab was diluted to 4 μg/ml in PBS, and was allowed to flow through the surface of an AHC biosensor (Cat.: 18-0015, PALL) for 120 s. Recombinant human Trop-2-his protein (ACCESSION NO.: NP_002344.2, AA 1-274) was used as a mobile phase, and its concentration was 60 nM. The binding time was 100 s and the dissociation time was 300 s. When the assay was finished, data from which the response values of blank control had been deducted were fitted to a 1:1 Langmuir binding model using software, and then kinetic constants for antigen-antibody binding were calculated.
Affinities of the antibodies obtained from the combinations of mutants of murine antibody 23-12, chimeric antibody ch23-12 and control antibody Sacituzumab to recombinant human Trop-2-his protein were determined by ForteBijo (Table 5).
In general, Kd refers to the free concentration of one partner at which half of the binding sites on the other are occupied at equilibrium, for simple one-to-one binding. Consider B1, for which the dissociation constant Kd was found to be 0.272 nM.

For B2, the Kd stood at 0.916 nM.

Regarding B3, the dissociation constant Kd was determined as 0.827 nM.

With B4, the Kd was found to be 0.881 nM.

With B5, the Kd worked out at 0.9 nM.

On to B6, for which the Kd is 1.43 nM.

As to B7, the equilibrium dissociation constant (Kd) is 15 nM.

Regarding B8, the equilibrium dissociation constant (Kd) turned out to be 1.1 nM.

With B9, the Kd turned out to be 2.87 nM.

As for B10, the Kd amounted to 23.9 nM.

Take B11: the Kd worked out at 9.62 nM.

In the case of B12, the Kd was 28 nM.

As for B13, the equilibrium dissociation constant (Kd) amounted to 0.298 nM.

With B14, the dissociation constant (Kd) was found to be 3.2 nM.

Turning to B15, the dissociation constant (Kd) is 26.2 nM.

B16: the Kd was found to be 0.991 nM.

Turning to B17, the Kd stood at 6.8 nM.

Turning to B18, the Kd came out at 10 nM.

On to B19, for which the Kd came to 0.893 nM.
